Patent US20250320312A1 (OXITOPE PHARMA B V, published 2025)

T1: Peptide 4: Biotin-AGGGGSGGGGSGGGGSAAA-Tyr-acid (N-terminal biotin; C-terminal acid)
T1 construct: Control peptide without PC
T1 peptide: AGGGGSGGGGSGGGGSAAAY

T2: Peptide 8: Biotin-AEAAAKEAAAKEAAAKEAAAKAAA-Tyr-acid (N-terminal biotin; C-terminal acid)
T2 construct: Control peptide without PC
T2 peptide: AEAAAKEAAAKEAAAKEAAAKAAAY


How the values were obtained:
Test in all cases: scFv ELISA
[1] = target: Peptide 1: Biotin-…-[Tyr(PC)]-acid
BSA = BSA (UniProt P02769)
[2] = target: Peptide 5: Biotin-…-[Tyr(PC)]-acid
[3] = target: T1, Peptide 4: …
Procedure, shortened: (§1)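 Bound scFv was read as OD450 after HRP–anti-V5 detection, TMB development and HCl stop. PPE with BSA was incubated 1 h at RT on BSA-blocked wells coated overnight at 4° C. with peptide, or on streptavidin wells loaded 1 h with biotinylated PC-peptides at 1 μg/mL.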

[4] = target: T2, Peptide 8: …
Procedure, shortened: as §1

BSA, sequence (P02769 25-607 limits assumed): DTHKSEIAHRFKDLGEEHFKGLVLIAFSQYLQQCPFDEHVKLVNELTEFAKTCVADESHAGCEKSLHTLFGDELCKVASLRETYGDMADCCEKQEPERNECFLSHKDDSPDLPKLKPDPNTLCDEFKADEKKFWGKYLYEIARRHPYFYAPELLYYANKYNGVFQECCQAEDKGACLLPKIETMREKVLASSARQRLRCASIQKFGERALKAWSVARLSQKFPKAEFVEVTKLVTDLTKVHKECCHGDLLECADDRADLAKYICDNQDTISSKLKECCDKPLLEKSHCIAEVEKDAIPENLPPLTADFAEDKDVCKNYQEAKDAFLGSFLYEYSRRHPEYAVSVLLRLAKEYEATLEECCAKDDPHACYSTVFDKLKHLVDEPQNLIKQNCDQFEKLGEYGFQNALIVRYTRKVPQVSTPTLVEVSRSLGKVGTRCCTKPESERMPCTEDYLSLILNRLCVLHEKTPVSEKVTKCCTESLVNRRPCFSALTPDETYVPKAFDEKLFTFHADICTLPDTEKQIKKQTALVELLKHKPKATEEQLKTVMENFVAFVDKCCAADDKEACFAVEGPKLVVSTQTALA

Row | Binder | OD450 [1] [OD450] | OD450 (BSA) [OD450] | OD450 [2] [OD450] | OD450 [3] [OD450] | OD450 [4] [OD450]
1 | PcOxP_DB03_F05 (scFv, V domains shown, scFv in periplasmic extract) VH: EVQLLESGGGLVQPGGSLRLSCAASGFTFSDYYMEWVRQAPGKGLEWVAASRNKGNDYTTAYADSVKGRFTISRDNSKNTLYLQMNSLRAEDTAVYYCARDYFGSSYWYFDVWGQGTLVTVSS VL: DIVMTQSPDSLAVSLGERATINCTASQSVYSSKHNKHYLAWYQQKPGQPPKLLIYGASNPYIGVPDRFSGSGSGTDFTLTISSLQAEDVAVYYCAQFYSYPLTFGGGTKVEIK | 0.73 | 0.06 | 1.04 | 0.05 | 0.04
2 | PcOxP_DB03_G11 (scFv, V domains shown, scFv in periplasmic extract) VH: EVQLLESGGGLVQPGGSLRLSCAASGFTFSSYYMEWVRQAPGKGLEWVAASRNKANDYTTEYADSVKGRFTISRDNSKNTLYLQMNSLRAEDTAVYYCARDYYGSSYWYFDVWGQGTLVTVSS VL: DIVMTQSPDSLAVSLGERATINCKSSQSVLSSKHKKNYLAWYQQKPGQPPKLLIYGASNRYIGVPDRFSGSGSGTDFTLTISSLQAEDVAVYYCAQFYSYPLTFGGGTKVEIK | 0.26 | 0.1 | 0.72 | 0.05 | 0.05
3 | PcOxP_DB04_A04 (scFv, V domains shown, scFv in periplasmic extract) VH: EVQLLESGGGLVQPGGSLRLSCAASGFTFSDFYMEWVRQAPGKGLEWVAASRNKWNDYTTEYADSVKGRFTISRDNSKNTLYLQMNSLRAEDTAVYYCARDYYGSSYWYFDVWGQGTLVTVSS VL: DIVMTQSPDSLAVSLGERATINCTASQSVYSSKNKKHYLAWYQQKPGQPPKLLIYGASNRYIGVPDRFSGSGSGTDFTLTISSLQAEDVAVYYCAQFYRYPLTFGGGTKVEIK | 1.09 | 0.11 | 1.9 | 0.08 | 0.08
4 | PcOxP_DB04_A05 (scFv, V domains shown, scFv in periplasmic extract) VH: EVQLLESGGGLVQPGGSLRLSCAASGFTFSDFYIEWVRQAPGKGLEWVAASRNKANDYTTEYADSVKGRFTISRDNSKNTLYLQMNSLRAEDTAVYYCARDYYGSSYWYFDVWGQGTLVTVSS VL: DIVMTQSPDSLAVSLGERATINCTASESLYSSKHKVHYLAWYQQKPGQPPKLLIYGASNREIGVPDRFSGSGSGTDFTLTISSLQAEDVAVYYCAQFYSYPLTFGGGTKVEIK | 0.72 | 0.06 | 1.29 | 0.04 | 0.04
5 | PcOxP_DB04_A11 (scFv, V domains shown, scFv in periplasmic extract) VH: EVQLLESGGGLVQPGGSLRLSCAASGFTFSDYYMEWVRQAPGKGLEWVAASRNKANTYTTEYADSVKGRFTISRDNSKNTLYLQMNSLRAEDTAVYYCARDYYGSSYWYFDVWGQGTLVTVSS VL: DIVMTQSPDSLAVSLGERATINCTASESVLSSKHKKNYLAWYQQKPGQPPKLLIYGASTRYIGVPDRFSGSGSGTDFTLTISSLQAEDVAVYYCAQFYSYPLTFGGGTKVEIK | 0.64 | 0.1 | 1.6 | 0.07 | 0.08
6 | PcOxP_DB03_F11 (scFv, V domains shown, scFv in periplasmic extract) VH: EVQLLESGGGLVQPGGSLRLSCAASGFTFSDYYMEWVRQAPGKGLEWVAASRNKANSYTTAYADSVKGRFTISRDNSKNTLYLQMNSLRAEDTAVYYCARDYYGSSYWYFDVWGQGTLVTVSS VL: DIVMTQSPDSLAVSLGERATINCTSSQSLLYSSNKKHYLAWYQQKPGQPPKLLIYGASNRYIGVPDRFSGSGSGTDFTLTISSLQAEDVAVYYCAQFYEYPLTFGGGTKVEIK | 1.47 | 0.12 | 1.43 | 0.06 | 0.06
7 | PcOxP_DB03_F07 (scFv, V domains shown, scFv in periplasmic extract) VH: EVQLLESGGGLVQPGGSLRLSCAASGFTQSDFYMEWVRQAPGKGLEWVAASRNKGNSYTTAYADSVKGRFTISRDNSKNTLYLQMNSLRAEDTAVYYCARDYYGSSYWYFDVWGQGTLVTVSS VL: DIVMTQSPDSLAVSLGERATINCTASESLYSGKHKVHYLAWYQQKPGQPPKLLIYGASNRYIGVPDRFSGSGSGTDFTLTISSLQAEDVAVYYCAQFYSYPLTFGGGTKVEIK | 0.53 | 0.08 | 1.19 | 0.05 | 0.05
8 | PcOxP_DB03_G01 (scFv, V domains shown, scFv in periplasmic extract) VH: EVQLLESGGGLVQPGGSLRLSCAASGFTFSDGYMEWVRQAPGKGLEWVAASRNKANFYTTEYADSVKGRFTISRDNSKNTLYLQMNSLRAEDTAVYYCARDHYGSSYWYFDVWGQGTLVTVSS VL: DIVMTQSPDSLAVSLGERATINCTASESLYSSKHKVHYLAWYQQKPGQPPKLLIYGASNRYIGVPDRFSGSGSGTDFTLTISSLQAEDVAVYYCAQFYNYPLTFGGGTKVEIK | 0.66 | 0.09 | 1.19 | 0.05 | 0.05
9 | PcOxP_DB04_B01 (scFv, V domains shown, scFv in periplasmic extract) VH: EVQLLESGGGLVQPGGSLRLSCAASGFTQSDFYMEWVRQAPGKGLEWVAASRNKANDYTTEYADSVKGRFTISRDNSKNTLYLQMNSLRAEDTAVYYCARDYYGESYWYFDVWGQGTLVTVSS VL: DIVMTQSPDSLAVSLGERATINCTASVSLYSSKHKVHYLAWYQQKPGQPPKLLIYGPSNRYIGVPDRFSGSGSGTDFTLTISSLQAEDVAVYYCAQFYSYPLTFGGGTKVEIK | 0.45 | 0.06 | 0.78 | 0.05 | 0.05
10 | PcOxP_DB03_H02 (scFv, V domains shown, scFv in periplasmic extract) VH: EVQLLESGGGLVQPGGSLRLSCAASGFTESDFYMEWVRQAPGKGLEWVAASRNKYNDYTTEYADSVKGRFTISRDNSKNTLYLQMNSLRAEDTAVYYCARDYYGSSYWYFDVWGQGTLVTVSS VL: DIVMTQSPDSLAVSLGERATINCTASESLYSSKHKVHYLAWYQQKPGQPPKLLIYGAQNRYIGVPDRFSGSGSGTDFTLTISSLQAEDVAVYYCAQFYSYPLTFGGGTKVEIK | 1.07 | 0.05 | 1.69 | 0.05 | 0.04
11 | PcOxP_DB03_G09 (scFv, V domains shown, scFv in periplasmic extract) VH: EVQLLESGGGLVQPGGSLRLSCAASGFSFSDFYMEWVRQAPGKGLEWVAASRNKWNDYTTEYADSVKGRFTISRDNSKNTLYLQMNSLRAEDTAVYYCARDYYGSSYWYFDVWGQGTLVTVSS VL: DIVMTQSPDSLAVSLGERATINCTASESLYSSKHKVHYLAWYQQKPGQPPKLLIYGASNRYIGVPDRFSGSGSGTDFTLTISSLQAEDVAVYYCASFYSYPLTFGGGTKVEIK | 0.74 | 0.07 | 1.07 | 0.05 | 0.05
12 | PcOxP_DB03_H10 (scFv, V domains shown, scFv in periplasmic extract) VH: EVQLLESGGGLVQPGGSLRLSCAASGFTFDDFYMEWVRQAPGKGLEWVAASRNEANDYTTEYADSVKGRFTISRDNSKNTLYLQMNSLRAEDTAVYYCARDYYGSSYWYFDVWGQGTLVTVSS VL: DIVMTQSPDSLAVSLGERATINCTASESLYSSKHKVHYLAWYQQKPGQPPKLLIYGAGNRYIGVPDRFSGSGSGTDFTLTISSLQAEDVAVYYCAQFYHYPLTFGGGTKVEIK | 0.24 | 0.05 | 0.39 | 0.04 | 0.07
13 | PcOxP_DB03_G12 (scFv, V domains shown, scFv in periplasmic extract) VH: EVQLLESGGGLVQPGGSLRLSCAASGFTFSDYYMEWVRQAPGKGLEWVAASRNKYNDYTTEYADSVKGRFTISRDNSKNTLYLQMNSLRAEDTAVYYCARDYYGSSYWYFDVWGQGTLVTVSS VL: DIVMTQSPDSLAVSLGERATINCKSSESVYSSKHKKHYLAWYQQKPGQPPKLLIYGASNRYIGVPDRFSGSGSGTDFTLTISSLQAEDVAVYYCAQFYSYPLTFGGGTKVEIK | 1.57 | 0.08 | 1.91 | 0.06 | 0.05
